Results taken from patent US20170355757A1 (Regeneron, published 2017).

T1: monkey C5-mmh (monkey, UniProt P01031 19-1676 (human entry), limits assumed)
T1 construct: recombinant, with C-terminal myc-myc-hexahistidine tag
T1 chain: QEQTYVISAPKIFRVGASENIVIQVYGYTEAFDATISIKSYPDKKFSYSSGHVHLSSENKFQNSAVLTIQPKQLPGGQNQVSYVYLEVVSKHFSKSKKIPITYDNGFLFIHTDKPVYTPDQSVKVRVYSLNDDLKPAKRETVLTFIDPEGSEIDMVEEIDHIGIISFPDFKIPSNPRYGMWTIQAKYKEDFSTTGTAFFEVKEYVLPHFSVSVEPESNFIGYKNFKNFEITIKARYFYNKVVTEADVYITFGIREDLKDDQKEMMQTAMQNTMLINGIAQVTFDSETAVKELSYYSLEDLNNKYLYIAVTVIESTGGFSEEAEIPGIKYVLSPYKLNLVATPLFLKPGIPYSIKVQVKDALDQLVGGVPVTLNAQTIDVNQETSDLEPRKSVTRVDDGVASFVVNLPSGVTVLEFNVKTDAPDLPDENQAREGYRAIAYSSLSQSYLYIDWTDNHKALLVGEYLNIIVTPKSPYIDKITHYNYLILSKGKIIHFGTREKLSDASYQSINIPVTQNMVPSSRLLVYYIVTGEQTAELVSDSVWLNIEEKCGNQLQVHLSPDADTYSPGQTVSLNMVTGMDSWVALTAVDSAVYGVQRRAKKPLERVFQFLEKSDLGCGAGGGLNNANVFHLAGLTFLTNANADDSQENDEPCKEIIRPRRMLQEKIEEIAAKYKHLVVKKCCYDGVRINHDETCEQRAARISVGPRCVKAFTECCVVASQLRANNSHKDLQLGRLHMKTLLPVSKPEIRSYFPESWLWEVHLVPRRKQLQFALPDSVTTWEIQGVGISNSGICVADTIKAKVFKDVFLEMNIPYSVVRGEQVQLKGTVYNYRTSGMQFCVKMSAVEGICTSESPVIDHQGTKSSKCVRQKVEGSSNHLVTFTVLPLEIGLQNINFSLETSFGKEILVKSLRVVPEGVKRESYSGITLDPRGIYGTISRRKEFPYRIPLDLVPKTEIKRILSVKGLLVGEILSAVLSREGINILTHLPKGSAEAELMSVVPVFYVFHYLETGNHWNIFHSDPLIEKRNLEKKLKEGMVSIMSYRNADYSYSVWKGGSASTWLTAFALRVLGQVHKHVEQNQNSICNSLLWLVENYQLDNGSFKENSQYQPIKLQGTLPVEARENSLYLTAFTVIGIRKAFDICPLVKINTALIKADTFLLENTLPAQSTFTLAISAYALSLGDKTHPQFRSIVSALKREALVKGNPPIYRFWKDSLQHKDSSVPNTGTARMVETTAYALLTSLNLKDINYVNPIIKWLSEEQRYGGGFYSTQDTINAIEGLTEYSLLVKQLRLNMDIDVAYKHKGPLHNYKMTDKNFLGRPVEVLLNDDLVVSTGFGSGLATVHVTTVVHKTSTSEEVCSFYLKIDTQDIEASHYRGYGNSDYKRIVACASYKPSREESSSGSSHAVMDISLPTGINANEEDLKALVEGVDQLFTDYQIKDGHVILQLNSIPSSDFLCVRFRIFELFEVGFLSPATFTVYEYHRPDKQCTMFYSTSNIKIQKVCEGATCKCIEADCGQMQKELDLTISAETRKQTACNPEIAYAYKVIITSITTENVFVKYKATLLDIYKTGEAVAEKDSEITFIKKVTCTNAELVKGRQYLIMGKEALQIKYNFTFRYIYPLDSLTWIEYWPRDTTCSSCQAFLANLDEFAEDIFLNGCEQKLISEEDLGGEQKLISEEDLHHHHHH


What was measured:
[1] = target: T2, human C5 (human, UniProt P01031 19-1676); test: cell-based or functional assay
[2] = target: T2, human C5; test: SPR (Biacore), mAb captured, dissociation of human C5 at pH7.4 vs pH6.0, 37°C
In short: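 Anti-C5 mAbs (human IgG4 Fc) captured on an amine-coupled mouse anti-human Fc surface; recombinant C5 dissociation followed by Biacore T200 in PBS-T (0.01M phosphate, 0.15M NaCl, 0.05% Tween-20) at pH7.4 or pH6.0. Dissociative half-life (t½) calculated from kd.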

[3] = target: T2, human C5; test: cell-based or functional assay; remark: listed apart in the source
[4] = target: T3, human C5 R885H-mmh (human, UniProt P01031 19-1676); test: cell-based or functional assay
[5] = target: T4, African green monkey C5 (African green monkey); test: cell-based or functional assay
[6] = target: T5, human C5 R885C-mmh (human, UniProt P01031 19-1676); test: cell-based or functional assay
[7] = target: T1, monkey C5-mmh; test: SPR (Biacore), mAb captured, dissociation of monkey C5 at pH7.4 vs pH6.0, 25°C
[8] = target: T1, monkey C5-mmh; test: SPR (Biacore), mAb captured, dissociation of monkey C5 at pH7.4 vs pH6.0, 37°C
[9] = target: T4, African green monkey C5; test: cell-based or functional assay; remark: listed apart in the source
[10] = target: Cynomolgus monkey C5 (cynomolgus monkey, UniProt A0A2K5U1T1 19-1676); test: cell-based or functional assay
[11] = target: T2, human C5; test: cell-based or functional assay; remark: listed apart in the source
[12] = target: T3, human C5 R885H-mmh; test: cell-based or functional assay; remark: listed apart in the source
[13] = target: T4, African green monkey C5; test: cell-based or functional assay; remark: listed apart in the source
[14] = target: T5, human C5 R885C-mmh; test: cell-based or functional assay; remark: listed apart in the source
[15] = target: T2, human C5; test: cell-based or functional assay; remark: listed apart in the source

Binder	t½ Ratio pH7.4/pH6.0 [2]	IC50, inhibition of CDC of Daudi cells, 1.66% human serum [3] [nM]	IC50, inhibition of CDC of Daudi cells, C5 depleted human serum and 6.6 nM C5 Variant R885H [4] [nM]	IC50, inhibition of CDC of Daudi cells, 1.66% African Green monkey serum [5] [nM]	IC50, inhibition of CDC of Daudi cells, C5 depleted human serum and 6.6 nM C5 Variant R885C [6] [nM]	t½ Ratio pH7.4/pH6.0 [7]	t½ Ratio pH7.4/pH6.0 [8]	IC50, inhibition of CDC of Daudi cells, C5 depleted human serum and 6.6 nM C5 Variant R885H, 7 nM anti-CD20 antibody [12] [nM]	Human AP % Max Inhibition, hemolysis assay, NHS [1] [%]	Human AP IC50, hemolysis assay, NHS [1] [nM]	Human CP % Max Inhibition, hemolysis assay, NHS [1] [%]	Human CP IC50, hemolysis assay, NHS [1] [nM]	AGM AP % Max Inhibition, hemolysis assay, 5% serum [9] [%]	AGM CP % Max Inhibition, hemolysis assay, 5% serum [9] [%]	AGM Serum AP IC50, hemolysis assay, 5% serum [9] [nM]	AGM Serum CP IC50, hemolysis assay, 5% serum [9] [nM]	Cyno AP % Max Inhibition, hemolysis assay, 5% serum [10] [%]	Cyno CP % Max Inhibition, hemolysis assay, 5% serum [10] [%]	Cyno Serum AP IC50, hemolysis assay, 5% serum [10] [nM]	Cyno Serum CP IC50, hemolysis assay, 5% serum [10] [nM]	further results
H4H12164P (antibody, human IgG4, V domains shown, H4H: human IgG4 Fc with S108P hinge mutation) VH: EVQLVESGGGLVRSGGSLRLSCAASGFTFNRYAMTWVRQAPGKGLEWVSAISGSGSSTYYTDSVKGRFTISRDNSKNSVDLQMHSLRVEDTAIYYCARGTTVTTGYGMDVWGQGTTVTVSS VL: DIQMTQSPSSLSASVGDRVTFTCQASQDITNSLNWYQQKPGRAPKLLIYDASYLKAGVPSRFSGSGSGTDFTFTISSLQPEDIATYYCQQYDDLPYTFGQGTKLEIK	≤ 0.1	2.4	1.8	5.8	0.82	2.9	1.1	–	69.7	14.5	95.9	2.1	15.6	85.8	178	247	98.7	94.7	9.1	19.6	–
H4H12166P2 (antibody, human IgG4, V domains shown, histidine-mutated CDR variant of H4H12166P; human IgG4 (S108P)) VH: QVQLQESGPGLVKPSETLSLTCTVSGDSVSSSYWTWIRQPPGKGLEWIGYIYYSGSSNYNPSLKSRATISVDTSKNQFSLKLSSVTAADTAVYYCAREGNVDTTMIFDYWGQGTLVTVSS VL: AIQMTQSPSSLSASVGDRVTITCRASQGIRNDLGWYQQKPGKAPKLLIYAASSLQSGVPSRFAGRGSGTDFTLTISSLQPEDFATYYCHQDFNYPWTFGQGTKVEIK	7.3	–	–	–	–	–	–	1.7	–	–	–	–	–	–	–	–	–	–	–	–	IC50, inhibition of CDC of Daudi cells, 1.66% human serum, 2 nM anti-CD20 antibody [11]: 3.7 nM; IC50, inhibition of CDC of Daudi cells, 1.66% African Green monkey serum, 10 nM anti-CD20 antibody [13]: 9.7 nM; IC50, inhibition of CDC of Daudi cells, C5 depleted human serum and 6.6 nM C5 Variant R885C, 30 nM anti-CD20 antibody [14]: 1.2 nM; Human AP % Max Inhibition, hemolysis assay, 5% NHS [15]: 81.3%; Human AP IC50, hemolysis assay, 5% NHS [15]: 47.8 nM; Human CP % Max Inhibition, hemolysis assay, 5% NHS [15]: 98.2%; Human CP IC50, hemolysis assay, 5% NHS [15]: 15.9 nM
H4H12166P3 (antibody, human IgG4, V domains shown) VH: QVQLQESGPGLVKPSETLSLTCTVSGDSVSSSYWTWIRQPPGKGLEWIGYIYYSGSSNYNPSLKSRATISVDTSKNQFSLKLSSVTAADTAVYYCAREHNVDTTMIFDYWGQGTLVTVSS VL: AIQMTQSPSSLSASVGDRVTITCRASQGIRNDLGWYQQKPGKAPKLLIYAASSLQSGVPSRFAGRGSGTDFTLTISSLQPEDFATYYCLQDFNYPWTFGQGTKVEIK	–	–	–	–	–	–	–	2.9	–	–	–	–	–	–	–	–	–	–	–	–	IC50, inhibition of CDC of Daudi cells, 1.66% African Green monkey serum, 10 nM anti-CD20 antibody [13]: > 30 nM; Max % Inhibition of CDC of Daudi cells, 1.66% African Green monkey serum, 10 nM anti-CD20 antibody [13]: 64%; IC50, inhibition of CDC of Daudi cells, C5 depleted human serum and 6.6 nM C5 Variant R885C, 30 nM anti-CD20 antibody [14]: 1.7 nM

Now from value to binder, other results behind:

t½ Ratio pH7.4/pH6.0 [2]	IC50, inhibition of CDC of Daudi cells, 1.66% human serum [3] [nM]	IC50, inhibition of CDC of Daudi cells, C5 depleted human serum and 6.6 nM C5 Variant R885H [4] [nM]	IC50, inhibition of CDC of Daudi cells, 1.66% African Green monkey serum [5] [nM]	IC50, inhibition of CDC of Daudi cells, C5 depleted human serum and 6.6 nM C5 Variant R885C [6] [nM]	t½ Ratio pH7.4/pH6.0 [7]	t½ Ratio pH7.4/pH6.0 [8]	IC50, inhibition of CDC of Daudi cells, C5 depleted human serum and 6.6 nM C5 Variant R885H, 7 nM anti-CD20 antibody [12] [nM]	Binder	Human AP % Max Inhibition, hemolysis assay, NHS [1] [%]	Human AP IC50, hemolysis assay, NHS [1] [nM]	Human CP % Max Inhibition, hemolysis assay, NHS [1] [%]	Human CP IC50, hemolysis assay, NHS [1] [nM]	AGM AP % Max Inhibition, hemolysis assay, 5% serum [9] [%]	AGM CP % Max Inhibition, hemolysis assay, 5% serum [9] [%]	AGM Serum AP IC50, hemolysis assay, 5% serum [9] [nM]	AGM Serum CP IC50, hemolysis assay, 5% serum [9] [nM]	Cyno AP % Max Inhibition, hemolysis assay, 5% serum [10] [%]	Cyno CP % Max Inhibition, hemolysis assay, 5% serum [10] [%]	Cyno Serum AP IC50, hemolysis assay, 5% serum [10] [nM]	Cyno Serum CP IC50, hemolysis assay, 5% serum [10] [nM]	further results
3.7	1.9	1.6	3.3	0.65	2.1	4.7	–	H4H12171P (antibody, human IgG4, V domains shown, H4H: human IgG4 Fc with S108P hinge mutation) VH: EVQLVESGGGVVRPGGSLRLSCAASGFTFDEYGMTWVRQVPGKGLEWVSGITWNGGFTDYTDSVKGRFTSSRDNAKNSLYLQMNSLRAEDTALYYCARDGYSSSWGAYDIWGQGTMVTVSS VL: DIQMTQSPSSLSASVGDRVTITCRASQSISTYLNWYQQKPGKAPKLLIYAASSLQSGVPLRFSGSGSGTDFTLTISSLQPEDFASYFCQQSYSTPYTFGQGTKLEIK	42	15.5	94.9	2.33	69.7	17.8	23.3	–	98.8	92.9	7.2	8.7	–
0.9	2.2	4.2	5.2	> 20	3.6	0.4	–	H4H12175P (antibody, human IgG4, V domains shown, H4H: human IgG4 Fc with S108P hinge mutation) VH: EVQLVESGGGVVQPGGSLRLSCAASGFTFNDYAMHWVRQAPGKGLEWVSLISGDGGNTYYADSVKGRLTISRDNSKNSLYLQMNSLRTEDTALYYCAKDKGWNFGYFDLWGRGTLVTVSS VL: DIQMTQSPSSLSTSVGDRVTITCRASQNIDTYLNWYQQKPGKAPKLLIYDASSLQSGVPSRFSGSGSGTDFTLTITSLQPEDFATYYCQQNDNILHPLTFGGGTKVEIK	80.2	20	98	2.36	17.4	84.5	98.5	118	98.1	96.7	8.05	10.9	–
